In patent US20020197661:

Columns and labels:
[1] = tested on: Ac-PANK-ACC
[2] = tested on: Ac-PRNR-ACC
[3] = tested on: Ac-PRTK-ACC
[4] = tested on: Acetyl-Prolyl-Arginyl-Asparaginyl-Lysyl-aminoacetamide coumarin (Ac-PRNK-ACC)
[5] = tested on: Ac-PANK-ACC; test: single substrate kinetics, fluorogenic ACC release, Lung (β-II) Tryptase
[6] = tested on: Ac-PRNR-ACC; test: as above
[7] = tested on: Ac-PRTK-ACC; test: as above
[8] = tested on: Acetyl-Prolyl-Arginyl-Asparaginyl-Lysyl-aminoacetamide coumarin (Ac-PRNK-ACC); test: as above
[9] = tested on: Ac-PANK-ACC; test: single substrate kinetics, fluorogenic ACC release, Skin (β-I) Tryptase
[10] = tested on: Ac-PRNR-ACC; test: as above
[11] = tested on: Ac-PRTK-ACC; test: as above
[12] = tested on: Acetyl-Prolyl-Arginyl-Asparaginyl-Lysyl-aminoacetamide coumarin (Ac-PRNK-ACC); test: as above

recombinant human βI-tryptase, sequence (chain, as listed by the source): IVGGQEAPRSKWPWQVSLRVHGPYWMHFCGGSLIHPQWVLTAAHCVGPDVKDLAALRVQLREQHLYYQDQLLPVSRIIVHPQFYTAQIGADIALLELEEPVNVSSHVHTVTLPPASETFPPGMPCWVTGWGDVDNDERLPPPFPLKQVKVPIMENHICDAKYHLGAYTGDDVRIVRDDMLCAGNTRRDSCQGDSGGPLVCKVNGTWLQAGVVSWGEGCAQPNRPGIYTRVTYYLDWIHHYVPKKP

Substance | kcat [1] | kcat/km (s^-1M^-1) [1] | activity relative to Ac-PRNK-ACC (kcat/Km) [2] | kcat [2] | kcat/km (s^-1M^-1) [2] | kcat [3] | kcat/km (s^-1M^-1) [3] | kcat [4] | kcat/km (s^-1M^-1) [4] | preference over Ac-PANK-ACC (kcat/Km) [4] | preference over Ac-PRTK-ACC (kcat/Km) [4] | Km [5] | Km [6] | Km [7] | Km [8] | cleavage of the fluorogenic substrate (fluorescence, excitation 355 nm, emission 460 nm) [4] | Km [9] | Km [10] | Km [11] | Km [12]
recombinant human βII-tryptase | 20.3 s⁻¹ | 180000 s^-1M^-1 | about 70-90% of the activity of Ac-PRNK-ACC | 21.8 s⁻¹ | 1.31e+06 s^-1M^-1 | 18.7 s⁻¹ | 1.27e+06 s^-1M^-1 | 16.8 s⁻¹ | 1.89e+06 s^-1M^-1 | an approximately 10-fold preference for Ac-PRNK-ACC (SEQ. ID. NO: 12) over Ac-PANK-ACC | A minimal preference, approximately 2-fold, for P2-asparagine over P2-threonine was seen for both enzymes | 110 µM | 16.5 µM | 14.7 µM | 8.9 µM |  |  |  |  | 
recombinant human βI-tryptase | 19.1 s⁻¹ | 140000 s^-1M^-1 |  | 20.9 s⁻¹ | 1.12e+06 s^-1M^-1 | 18.3 s⁻¹ | 780000 s^-1M^-1 | 17.8 s⁻¹ | 1.23e+06 s^-1M^-1 |  | A minimal preference, approximately 2-fold, for P2-asparagine over P2-threonine was seen for both enzymes |  |  |  |  | Ac-PRNK-ACC (SEQ. ID. NO: 12) is a specific substrate for tryptase in relation to other blood borne serine proteases | 133 µM | 18.6 µM | 23.4 µM | 14.5 µM
Human alpha-thrombin (Haematologic Technologies, Inc.) |  |  |  |  |  |  |  |  |  |  |  |  |  |  |  | Ac-PRNK-ACC (SEQ. ID. NO: 12) is a specific substrate for tryptase in relation to other blood borne serine proteases |  |  |  | 
